Consider one substance from IntAct's records for PubMed 29892012.

Among the targets are pde9a_human PDE9A (UniProt O76083); ar6p1_human ARL6IP1 (UniProt Q15041); rpia_human RPIA (UniProt P49247); txlna_human TXLNA (UniProt P40222).
The next test addresses T1, phs_human PCBD1 (UniProt P61457).
T1 sequence: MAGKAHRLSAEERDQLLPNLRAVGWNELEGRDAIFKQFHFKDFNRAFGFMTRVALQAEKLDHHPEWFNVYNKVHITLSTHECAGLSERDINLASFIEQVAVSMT

A further test has as its target T2, goga2_human GOLGA2 (UniProt Q08379).
T2 sequence: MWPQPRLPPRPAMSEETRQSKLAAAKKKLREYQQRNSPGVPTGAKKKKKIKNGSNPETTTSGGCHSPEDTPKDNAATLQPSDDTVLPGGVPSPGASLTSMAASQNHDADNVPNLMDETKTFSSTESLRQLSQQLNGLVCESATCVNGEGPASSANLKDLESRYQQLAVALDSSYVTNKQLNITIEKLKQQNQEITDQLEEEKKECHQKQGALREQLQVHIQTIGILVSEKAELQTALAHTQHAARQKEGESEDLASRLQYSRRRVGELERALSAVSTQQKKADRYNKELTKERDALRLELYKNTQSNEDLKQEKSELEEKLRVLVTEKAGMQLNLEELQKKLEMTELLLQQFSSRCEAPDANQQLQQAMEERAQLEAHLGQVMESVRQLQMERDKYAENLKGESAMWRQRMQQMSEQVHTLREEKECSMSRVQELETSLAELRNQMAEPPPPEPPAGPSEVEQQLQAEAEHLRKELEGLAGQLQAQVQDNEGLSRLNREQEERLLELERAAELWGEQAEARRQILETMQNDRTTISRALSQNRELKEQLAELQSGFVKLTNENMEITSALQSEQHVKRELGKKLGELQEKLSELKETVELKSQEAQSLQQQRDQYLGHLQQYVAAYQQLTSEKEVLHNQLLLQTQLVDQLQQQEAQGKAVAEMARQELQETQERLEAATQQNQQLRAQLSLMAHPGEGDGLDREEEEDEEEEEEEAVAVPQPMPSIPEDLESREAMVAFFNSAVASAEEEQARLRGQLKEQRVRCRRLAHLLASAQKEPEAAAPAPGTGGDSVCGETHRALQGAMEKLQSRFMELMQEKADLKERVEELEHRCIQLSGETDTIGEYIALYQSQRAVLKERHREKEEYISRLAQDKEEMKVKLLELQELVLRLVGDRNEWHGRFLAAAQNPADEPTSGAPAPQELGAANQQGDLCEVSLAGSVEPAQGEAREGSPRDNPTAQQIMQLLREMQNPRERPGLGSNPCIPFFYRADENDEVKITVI

The next test has as its target T3, ei2ba_human EIF2B1 (UniProt Q14232).
T3 sequence: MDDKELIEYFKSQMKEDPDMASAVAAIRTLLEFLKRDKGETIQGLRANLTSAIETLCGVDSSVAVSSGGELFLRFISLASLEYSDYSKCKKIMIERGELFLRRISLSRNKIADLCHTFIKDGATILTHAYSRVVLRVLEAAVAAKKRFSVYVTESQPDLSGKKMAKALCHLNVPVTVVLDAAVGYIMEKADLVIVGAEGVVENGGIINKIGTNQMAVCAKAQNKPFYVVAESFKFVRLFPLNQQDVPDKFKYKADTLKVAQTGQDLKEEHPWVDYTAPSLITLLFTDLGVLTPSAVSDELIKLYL

A further test concerns the target T4, prps1_human PRPS1 (UniProt P60891).
T4 sequence: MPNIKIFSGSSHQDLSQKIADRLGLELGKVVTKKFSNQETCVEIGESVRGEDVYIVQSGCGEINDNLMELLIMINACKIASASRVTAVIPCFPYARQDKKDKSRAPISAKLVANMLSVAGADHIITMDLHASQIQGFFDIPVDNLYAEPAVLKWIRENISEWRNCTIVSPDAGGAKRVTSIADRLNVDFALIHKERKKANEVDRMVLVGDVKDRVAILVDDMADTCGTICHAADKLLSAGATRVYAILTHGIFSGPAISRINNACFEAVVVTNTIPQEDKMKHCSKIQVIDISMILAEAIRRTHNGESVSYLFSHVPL

Another test has as its target T5, dctd_human DCTD (UniProt P32321).
T5 sequence: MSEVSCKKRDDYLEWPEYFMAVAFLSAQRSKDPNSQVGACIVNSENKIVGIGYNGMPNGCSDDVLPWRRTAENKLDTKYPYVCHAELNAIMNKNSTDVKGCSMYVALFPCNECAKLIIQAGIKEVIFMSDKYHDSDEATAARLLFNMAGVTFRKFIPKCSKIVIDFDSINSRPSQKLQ

The target of the next test is T6, tle5_human TLE5 (UniProt Q08117).
T6 sequence: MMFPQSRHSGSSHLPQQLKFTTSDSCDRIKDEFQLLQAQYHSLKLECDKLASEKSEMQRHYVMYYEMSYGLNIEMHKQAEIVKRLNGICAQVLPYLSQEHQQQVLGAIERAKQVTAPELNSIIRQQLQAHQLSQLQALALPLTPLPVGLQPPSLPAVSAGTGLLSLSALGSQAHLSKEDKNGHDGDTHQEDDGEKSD

Another test deals with T7, kctd9_human KCTD9 (UniProt Q7L273).
T7 sequence: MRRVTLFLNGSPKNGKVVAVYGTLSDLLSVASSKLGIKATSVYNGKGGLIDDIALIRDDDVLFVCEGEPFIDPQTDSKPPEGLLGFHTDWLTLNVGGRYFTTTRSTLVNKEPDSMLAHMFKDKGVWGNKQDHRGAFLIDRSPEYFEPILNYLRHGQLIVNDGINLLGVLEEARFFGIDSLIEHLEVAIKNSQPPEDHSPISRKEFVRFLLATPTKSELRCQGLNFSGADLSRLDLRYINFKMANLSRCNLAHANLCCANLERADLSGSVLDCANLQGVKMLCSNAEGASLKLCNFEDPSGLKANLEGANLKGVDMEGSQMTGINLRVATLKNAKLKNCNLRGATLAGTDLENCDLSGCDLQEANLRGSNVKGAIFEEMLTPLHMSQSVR

ar6p1_human ARL6IP1, sequence (Q15041 whole entry): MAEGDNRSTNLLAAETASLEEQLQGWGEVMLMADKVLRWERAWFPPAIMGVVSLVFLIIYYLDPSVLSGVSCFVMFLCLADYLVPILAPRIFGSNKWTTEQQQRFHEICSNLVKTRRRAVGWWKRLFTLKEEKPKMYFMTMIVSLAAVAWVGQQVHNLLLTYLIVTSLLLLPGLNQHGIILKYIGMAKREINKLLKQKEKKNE
txlna_human TXLNA, sequence (P40222 whole entry): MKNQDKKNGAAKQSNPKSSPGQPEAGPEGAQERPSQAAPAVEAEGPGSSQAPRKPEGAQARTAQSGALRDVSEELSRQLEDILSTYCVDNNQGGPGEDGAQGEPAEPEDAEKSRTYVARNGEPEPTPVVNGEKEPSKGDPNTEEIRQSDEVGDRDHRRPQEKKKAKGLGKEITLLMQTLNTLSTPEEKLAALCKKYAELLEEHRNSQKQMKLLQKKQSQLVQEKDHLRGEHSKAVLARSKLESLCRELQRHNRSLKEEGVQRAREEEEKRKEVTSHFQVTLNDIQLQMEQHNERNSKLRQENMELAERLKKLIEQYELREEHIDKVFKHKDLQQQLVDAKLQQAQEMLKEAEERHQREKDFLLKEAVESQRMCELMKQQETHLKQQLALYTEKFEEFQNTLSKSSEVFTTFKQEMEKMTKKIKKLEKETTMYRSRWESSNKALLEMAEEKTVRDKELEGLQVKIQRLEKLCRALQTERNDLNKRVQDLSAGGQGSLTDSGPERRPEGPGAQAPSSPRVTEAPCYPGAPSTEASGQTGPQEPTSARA
pde9a_human PDE9A, sequence (O76083 whole entry): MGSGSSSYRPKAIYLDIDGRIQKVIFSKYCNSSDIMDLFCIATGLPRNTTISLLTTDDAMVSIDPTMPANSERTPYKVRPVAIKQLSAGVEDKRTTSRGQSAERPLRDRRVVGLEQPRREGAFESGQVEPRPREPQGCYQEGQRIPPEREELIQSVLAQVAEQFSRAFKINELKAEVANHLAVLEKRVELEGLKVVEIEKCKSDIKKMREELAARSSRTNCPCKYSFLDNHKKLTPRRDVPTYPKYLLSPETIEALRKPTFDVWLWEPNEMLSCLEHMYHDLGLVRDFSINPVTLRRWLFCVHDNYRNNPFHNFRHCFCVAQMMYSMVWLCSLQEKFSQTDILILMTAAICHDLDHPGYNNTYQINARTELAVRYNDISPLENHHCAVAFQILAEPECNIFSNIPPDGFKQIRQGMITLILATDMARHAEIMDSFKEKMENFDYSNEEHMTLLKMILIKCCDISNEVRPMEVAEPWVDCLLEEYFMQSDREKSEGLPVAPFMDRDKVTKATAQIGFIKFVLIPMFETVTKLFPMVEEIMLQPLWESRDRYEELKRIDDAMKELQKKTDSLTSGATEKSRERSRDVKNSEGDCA
rpia_human RPIA, sequence (P49247 whole entry): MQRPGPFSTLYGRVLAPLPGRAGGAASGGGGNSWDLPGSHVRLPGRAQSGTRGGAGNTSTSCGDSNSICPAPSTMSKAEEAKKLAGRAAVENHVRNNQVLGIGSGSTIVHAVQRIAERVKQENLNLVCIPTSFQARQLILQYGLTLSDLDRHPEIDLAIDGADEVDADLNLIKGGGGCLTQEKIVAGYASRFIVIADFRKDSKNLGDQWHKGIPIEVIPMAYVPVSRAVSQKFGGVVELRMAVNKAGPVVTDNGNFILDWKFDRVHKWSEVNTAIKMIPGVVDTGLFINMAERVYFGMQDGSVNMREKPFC

With “Golgi reassembly-stacking protein 2 (Homo sapiens) (from UniProt Q9H8Y8) L320R”, the “effect of a mutation on the interaction” value with phs_human PCBD1, with goga2_human GOLGA2, with pde9a_human PDE9A, with ei2ba_human EIF2B1, with prps1_human PRPS1 and with ar6p1_human ARL6IP1 was “with no effect” each time. In addition, the “effect of a mutation on the interaction” value with dctd_human DCTD was “with no effect”; with tle5_human TLE5, “disrupting interaction strength”; with rpia_human RPIA, “with no effect”; with kctd9_human KCTD9 it was “with no effect”; in the test with txlna_human TXLNA it was “with no effect”.
